We go through 2 substances from patent publication US20190248863A1.

Some targets named below: human RXFP2 (human) (UniProt Q8WXD0); human RXFP3 (human) (UniProt Q9NSD7); human RXFP4 (human) (UniProt Q8TDU9).
Holding throughout (assay): cell-based or functional assay

Sequence of human RXFP4 (human) (Q8TDU9 whole entry): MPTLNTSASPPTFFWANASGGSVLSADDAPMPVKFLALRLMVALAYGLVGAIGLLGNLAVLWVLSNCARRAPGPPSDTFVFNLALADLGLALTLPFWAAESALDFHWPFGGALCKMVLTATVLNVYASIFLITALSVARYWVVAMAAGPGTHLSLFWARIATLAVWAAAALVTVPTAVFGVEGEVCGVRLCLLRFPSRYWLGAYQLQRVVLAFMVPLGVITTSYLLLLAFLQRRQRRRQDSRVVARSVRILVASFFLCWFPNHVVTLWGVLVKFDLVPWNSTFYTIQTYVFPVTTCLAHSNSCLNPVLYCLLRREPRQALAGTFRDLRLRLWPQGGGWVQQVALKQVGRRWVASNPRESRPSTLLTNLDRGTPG
Sequence of human RXFP2 (human) (Q8WXD0 whole entry): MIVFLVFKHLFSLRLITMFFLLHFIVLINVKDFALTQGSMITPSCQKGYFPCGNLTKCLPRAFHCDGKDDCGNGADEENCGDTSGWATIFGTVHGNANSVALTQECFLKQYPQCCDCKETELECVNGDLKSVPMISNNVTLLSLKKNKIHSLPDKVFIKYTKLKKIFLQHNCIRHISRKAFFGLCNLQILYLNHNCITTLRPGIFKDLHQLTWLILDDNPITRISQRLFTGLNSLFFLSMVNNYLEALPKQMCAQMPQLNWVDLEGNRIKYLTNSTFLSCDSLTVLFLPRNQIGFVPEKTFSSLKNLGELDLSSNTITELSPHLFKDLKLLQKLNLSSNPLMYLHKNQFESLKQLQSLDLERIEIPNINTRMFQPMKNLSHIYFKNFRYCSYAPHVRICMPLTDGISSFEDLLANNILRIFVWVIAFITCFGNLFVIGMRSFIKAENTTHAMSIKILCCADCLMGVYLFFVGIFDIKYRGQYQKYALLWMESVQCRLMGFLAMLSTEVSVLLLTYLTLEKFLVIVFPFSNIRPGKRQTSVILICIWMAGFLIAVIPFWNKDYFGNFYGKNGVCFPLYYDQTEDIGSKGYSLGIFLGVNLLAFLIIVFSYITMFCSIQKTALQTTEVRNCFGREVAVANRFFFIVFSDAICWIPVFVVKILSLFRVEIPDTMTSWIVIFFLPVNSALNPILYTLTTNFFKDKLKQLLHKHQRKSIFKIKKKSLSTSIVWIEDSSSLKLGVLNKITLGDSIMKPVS
Sequence of human RXFP3 (human) (Q9NSD7 whole entry): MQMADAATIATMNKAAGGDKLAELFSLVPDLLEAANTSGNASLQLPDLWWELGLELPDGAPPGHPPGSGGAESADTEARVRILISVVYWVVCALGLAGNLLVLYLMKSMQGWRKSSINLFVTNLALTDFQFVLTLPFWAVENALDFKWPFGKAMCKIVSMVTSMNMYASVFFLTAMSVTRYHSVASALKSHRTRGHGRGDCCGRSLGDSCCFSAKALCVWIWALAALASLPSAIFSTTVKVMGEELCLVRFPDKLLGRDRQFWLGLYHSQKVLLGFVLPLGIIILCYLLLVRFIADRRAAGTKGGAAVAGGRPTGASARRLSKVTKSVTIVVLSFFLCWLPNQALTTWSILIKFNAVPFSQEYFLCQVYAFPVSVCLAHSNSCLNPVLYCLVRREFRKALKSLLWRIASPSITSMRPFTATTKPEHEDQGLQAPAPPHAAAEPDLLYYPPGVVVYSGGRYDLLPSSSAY

Turning to “insulin like 3 protein-INSL3 (from UniProt P51460 106-131; P51460 21-55) (ligand)”, in the test with human RXFP2 (human), the cAMP Assay EC50 (nM), human RXFP2/CHO-K1 cells is 0.46 nM.

Substance “recombinant human relaxin 3 (from UniProt Q8WXF3 119-142; Q8WXF3 26-52) (ligand)” displayed a cAMP Assay EC50 (nM), inhibition of forskolin-induced cAMP, human RXFP3/CHO-K1 cells with human RXFP3 (human) of 0.6 nM. Also, in the test with human RXFP4 (human), the cAMP Assay EC50 (nM), inhibition of forskolin-induced cAMP, human RXFP4/CHO-K1 cells is 2.8 nM and the maximal inhibition of forskolin-induced cAMP (partial agonist activity), human RXFP4/CHO-K1 cells came to 40%.
